According to article PMC8215223:

Molecular target: GM130 (UniProt Q08379)
Experiment: co-IP of GM130 with GFP-HOOK3
Conditions: reference: wild type

| Substance | binding against the reference (sites S238) | binding against the reference (sites S707) |
| --- | --- | --- |
| HOOK3 (from UniProt Q86VS8) S238A | weaker |  |
| HOOK3 (from UniProt Q86VS8) S707A |  | weaker |
